According to PMC10548220, “Development and evaluation of nanobody tracers for noninvasive nuclear imaging of the immune-checkpoint TIGIT” (Frontiers in Immunology, 2023):

Key:
CD155 (Homo sapiens) = CD155 (Homo sapiens) (UniProt P15151); settings: cited from earlier work
[1] = target: recombinant mouse TIGIT-Fc carrier-free protein (mouse) (UniProt P86176); assay: SPR; Biacore T200; recombinant m/hTIGIT-Fc immobilised on a CM5 chip; Nbs injected, eight two-fold dilutions from 200 nM, 10 µl/min, 25°C; HBS pH 7.4 (0.01 M HEPES, 0.15 M NaCl, 3 mM EDTA, 0.005% Tween 20); fit 1:1 binding with drift and RI2
Sequence of recombinant mouse TIGIT-Fc carrier-free protein (mouse) (P86176 29-148): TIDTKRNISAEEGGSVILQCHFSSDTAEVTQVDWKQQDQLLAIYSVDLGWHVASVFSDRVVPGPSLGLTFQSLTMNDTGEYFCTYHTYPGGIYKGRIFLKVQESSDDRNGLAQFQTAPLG

[2] = target: T1, recombinant mouse TIGIT-Fc carrier-free protein (Mus musculus, UniProt A0A0B4J1G6); assay: SPR; Biacore T200; m/hTIGIT-Fc (10 µg/mL in 10 mM Na-acetate pH 4.0) immobilised on a CM5 chip; Nbs or scFv injected in two-fold dilutions from 200 nM, 10 µl/min, 25°C; HBS pH 7.4 (0.01 M HEPES, 0.15 M NaCl, 3 mM EDTA, 0.005% Tween 20); fit 1:1 binding with drift and RI2; settings: both partners purified
T1 construct: T cell Ig and ITIM domain receptor (TIGIT), mouse; also called mTIGIT-Fc; mouse TIGIT recombinant protein; source: bought: Biolegend (Cat. No. 771808)
T1 sequence (P86176 29-148): as above

[3] = target: T2, recombinant mouse TIGIT-Fc carrier-free protein (Mus musculus, UniProt A0A0B4J1G6); assay: SPR; Biacore T200; recombinant m/hTIGIT-Fc immobilised on a CM5 chip; Nbs injected, eight two-fold dilutions from 200 nM, 10 µl/min, 25°C; HBS pH 7.4 (0.01 M HEPES, 0.15 M NaCl, 3 mM EDTA, 0.005% Tween 20); fit 1:1 binding with drift and RI2; settings: both partners purified
T2 construct: T cell Ig and ITIM domain receptor (TIGIT), mouse; also called mTIGIT-Fc; recombinant mTIGIT; source: bought: Biolegend
T2 sequence (P86176 29-148): as above

[4] = target: T3, recombinant human TIGIT-Fc carrier-free protein (Homo sapiens (Human)., UniProt Q495A1); assay: as above; settings: both partners purified
T3 construct: T cell Ig and ITIM domain receptor (TIGIT), human; also called hTIGIT-Fc; recombinant hTIGIT; source: bought: Biolegend
T3 sequence (Q495A1 22-141): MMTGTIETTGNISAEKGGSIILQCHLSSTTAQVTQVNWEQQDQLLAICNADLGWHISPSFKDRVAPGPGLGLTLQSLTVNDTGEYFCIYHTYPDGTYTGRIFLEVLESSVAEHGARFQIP

[5] = target: T4, recombinant human TIGIT-Fc carrier-free protein (Homo sapiens (Human)., UniProt Q495A1-1); assay: SPR; Biacore T200; m/hTIGIT-Fc (10 µg/mL in 10 mM Na-acetate pH 4.0) immobilised on a CM5 chip; Nbs or scFv injected in two-fold dilutions from 200 nM, 10 µl/min, 25°C; HBS pH 7.4 (0.01 M HEPES, 0.15 M NaCl, 3 mM EDTA, 0.005% Tween 20); fit 1:1 binding with drift and RI2; settings: both partners purified
T4 construct: T cell Ig and ITIM domain receptor (TIGIT), human; also called hTIGIT-Fc; human TIGIT recombinant protein; source: bought: Biolegend (Cat. No. 768608)
T4 sequence (Q495A1 22-141): as above

Sequence of CD155 (Homo sapiens) (P15151 21-343): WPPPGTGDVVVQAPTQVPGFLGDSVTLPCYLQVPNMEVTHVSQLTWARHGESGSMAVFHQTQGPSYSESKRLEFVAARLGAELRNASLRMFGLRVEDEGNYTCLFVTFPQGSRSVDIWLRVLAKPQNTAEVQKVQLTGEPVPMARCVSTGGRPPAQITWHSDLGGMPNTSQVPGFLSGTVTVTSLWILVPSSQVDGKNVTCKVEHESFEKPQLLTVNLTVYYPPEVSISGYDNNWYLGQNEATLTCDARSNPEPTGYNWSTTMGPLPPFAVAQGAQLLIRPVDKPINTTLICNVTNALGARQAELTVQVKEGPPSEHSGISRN

**Q.** Which Kd (CD155 (Homo sapiens)) does the source give for TIGIT (from UniProt Q495A1) here?
**A.** 2 nM

B1: anti-mTIGIT Nb 16979 (VHH)
VHH: QVQLQESGGGLVQAGESLRLSCAASIIVSDNIMAWYRQSPGKQREIVALISSTGTINYVDSVKGRFTISRDNAKNTLNLQMTKLKPEDTAVYYCSGRTLRVYWGQGTQVTVSS
notes: nanobody from an immunized llama; Cloned in pHen6 after PCR with primers A6E and PMCF; source: E. coli WK6, periplasmic extract, purified (Ni-NTA, SEC); not shown: His6, C-terminal, kept
**Q.** For B1, which Kd [1] is on record?
**A.** 846 nM

**Q.** What about the koff [2] of the same molecule?
**A.** 0.114 s⁻¹

**Q.** What about the kon [2] of the same molecule?
**A.** 134000 M⁻¹ s⁻¹

B2: anti-mTIGIT nanobody 16966 (VHH)
VHH: QVQLQESGGGSVRPGESLRLSCAASSDSSITGMDWYRQAPGKQREWVATITRNNITIYGASVKGRFTVSRDNVKNTWYLQMNSLKPEDTAVYYCTYRGNWGQGTQVTVSS
notes: Cloned into pHen6 after PCR with primers A6E and PMCF; labelled with 99mTc on the His6 tag for the in vivo work; also called Nb 16966; source: E. coli WK6, periplasmic extract, purified (Ni-NTA, SEC); not shown: His6, C-terminal, kept
**Q.** For B2, which Kd [3] is on record?
**A.** 0.157 ± 0.001 nM

B3: single-chain variable fragment derived from the monoclonal antibody Vibostolimab (scFv, V domains shown)
VH: EVQLVQSGAEVKKPGSSVKVSCKASGYTFSSYVMHWVRQAPGQGLEWIGYIDPYNDGAKYAQKFQGRVTLTSDKSTSTAYMELSSLRSEDTAVYYCARGGPYGWYFDVWGQGTTVTVSS
VL: DIQMTQSPSSLSASVGDRVTITCRASEHIYSYLSWYQQKPGKVPKLLIYNAKTLAEGVPSRFSGSGSGTDFTLTISSLQPEDVATYYCQHHFGSPLTFGQGTRLEIK
notes: VH of the mAb Vibostolimab (Merck); (G4S)3 linker, written out from the printed formula; VL of the mAb Vibostolimab (Merck); Cloned into pHen6 by Gibson assembly; also called scFv Vibo; Vibo scFv; source: E. coli WK6, periplasmic extract, purified (Ni-NTA, SEC), produced in the same way as the Nbs; not shown: His6, C-terminal, kept
**Q.** With B3 as the molecule, how does the Kd [4] read?
**A.** 0.996 ± 0.004 nM

B4: anti-mTIGIT nanobody 16972 (VHH)
VHH: QVQLQESGGGLVQTGESLRLSCAASSVSSITGMDWYRQAPGKQREWVATITRNNIAMYGASVKGRFTVSRDNAKNTWYLQMNSLKPEDTAVYYCTYRGNWGQGTQVTVSS
notes: Cloned into pHen6 after PCR with primers A6E and PMCF; also called Nb 16972; source: E. coli WK6, periplasmic extract, purified (Ni-NTA, SEC); not shown: His6, C-terminal, kept
**Q.** With B4 as the molecule, how does the Kd [3] read?
**A.** 0.152 ± 0.001 nM

B5: anti-mTIGIT nanobody 16988 (VHH)
VHH: QVQLQESGGGLVQAGGSLRLSCAASSVSSITGMDWYRQAPGKQREWVATITRNNIAMYGASVKGRFTVSRDDAKNTWYLQMNSLKPEDTAVYYCTYHGNWGQGTQVTVSS
notes: Cloned into pHen6 after PCR with primers A6E and PMCF; labelled with 99mTc on the His6 tag for the in vivo work; also called lead anti-mTIGIT Nb; source: E. coli WK6, periplasmic extract, purified (Ni-NTA, SEC); not shown: His6, C-terminal, kept
**Q.** For B5, which Kd [3] is on record?
**A.** 0.104 ± 0.001 nM

B6: anti-hTIGIT nanobody 16920 (VHH)
VHH: QVQLQESGGGFVQAGGSLRLSCAASSISSIYAMDWYRQAPGKQREFVAGITSGGTTNYGSTVKGRFTISRDESKNTVDLQMNSLKPEDSAVYVCRATISWKIYSGQGTQVTVSS
notes: Cloned into pHen6 after PCR with primers A6E and PMCF; source: E. coli WK6, periplasmic extract, purified (Ni-NTA, SEC); not shown: His6, C-terminal, kept
**Q.** With B6 as the molecule, how does the Kd [4] read?
**A.** 0.753 ± 0.002 nM

B7: anti-hTIGIT nanobody 16925 (VHH)
VHH: QVQLQESGGGLVQAGGSLRLSCAASSISSINAMGWYRQPPGKQRELVARITFGHSTNYADSVKGRFTISRDNAKSTVYLQMNSLKPEDTAVYYCNADLLLNTQAIRAWGQGTQVTVSS
notes: Cloned into pHen6 after PCR with primers A6E and PMCF; labelled with 99mTc on the His6 tag for the in vivo work; also called lead hTIGIT Nb; source: E. coli WK6, periplasmic extract, purified (Ni-NTA, SEC); not shown: His6, C-terminal, kept
**Q.** With B7 as the molecule, how does the Kd [4] read?
**A.** 1.974 ± 0.004 nM

B8: anti-hTIGIT nanobody 17010 (VHH)
VHH: QVQLQESGGGSVQTGGSLRLSCAASNGFSINAMGWYRQSPGKQRELVARITSGSSTNYTNYADSVKGRFTISRDNAKNTGYLEMNLLKPEDTAVYYCHADVLLGGLQGLIQRFWGQGTQVTVSS
notes: Cloned into pHen6 after PCR with primers A6E and PMCF; also called Nb 17010; source: E. coli WK6, periplasmic extract, purified (Ni-NTA, SEC); not shown: His6, C-terminal, kept
**Q.** For B8, which Kd [4] is on record?
**A.** 0.345 ± 0.001 nM

B9: anti-hTIGIT nanobody 17018 (VHH)
VHH: QVQLQESGGGLVQAGGSLRLSCTASSIFSINAMGWYRQTPGKQRELVARITNGSSTNYADSVKGRFTISRDNAKNTVYLQMNSLKPEDTAVYYCHTDLLLEVGAMRYWGQGTQVTVSS
notes: Cloned into pHen6 after PCR with primers A6E and PMCF; also called Nb 17018; source: E. coli WK6, periplasmic extract, purified (Ni-NTA, SEC); not shown: His6, C-terminal, kept
**Q.** With B9 as the molecule, how does the Kd [4] read?
**A.** 0.47 ± 0.002 nM

B10: anti-hTIGIT nanobody 17037 (VHH)
VHH: QVQLQESGGGLVQAGGSLRLSCAASSTLSIDDMGWYRQAPEKHREFVATISRGGSTNYAASVKGRFTISRDNAKNTVFLQMNNLKSEDTAVYYCRATSTWRYYWAQGTQVTVSS
notes: Cloned into pHen6 after PCR with primers A6E and PMCF; also called Nb 17037; source: E. coli WK6, periplasmic extract, purified (Ni-NTA, SEC); not shown: His6, C-terminal, kept
**Q.** Which Kd [4] does the source give for B10 here?
**A.** 0.116 ± 0.001 nM

B11: anti-mTIGIT Nb 16966 (VHH)
VHH: QVQLQESGGGSVRPGESLRLSCAASSDSSITGMDWYRQAPGKQREWVATITRNNITIYGASVKGRFTVSRDNVKNTWYLQMNSLKPEDTAVYYCTYRGNWGQGTQVTVSS
notes: as for B1
**Q.** Which koff [2] does the source give for B11 here?
**A.** 0.00257 s⁻¹

**Q.** What about the kon [2] of the same molecule?
**A.** 1.64e+07 M⁻¹ s⁻¹

B12: anti-hTIGIT Nb 16920 (VHH)
VHH: QVQLQESGGGFVQAGGSLRLSCAASSISSIYAMDWYRQAPGKQREFVAGITSGGTTNYGSTVKGRFTISRDESKNTVDLQMNSLKPEDSAVYVCRATISWKIYSGQGTQVTVSS
notes: as for B1
**Q.** For B12, which koff [5] is on record?
**A.** 0.00426 s⁻¹

**Q.** And the kon [5]?
**A.** 5.66e+06 M⁻¹ s⁻¹

B13: anti-hTIGIT Nb 16925 (VHH)
VHH: QVQLQESGGGLVQAGGSLRLSCAASSISSINAMGWYRQPPGKQRELVARITFGHSTNYADSVKGRFTISRDNAKSTVYLQMNSLKPEDTAVYYCNADLLLNTQAIRAWGQGTQVTVSS
notes: as for B1
**Q.** Which results are given for B13?
**A.** koff [5]: 0.000911 s⁻¹; kon [5]: 462000 M⁻¹ s⁻¹

B14: anti-hTIGIT Nb 17010 (VHH)
VHH: QVQLQESGGGSVQTGGSLRLSCAASNGFSINAMGWYRQSPGKQRELVARITSGSSTNYTNYADSVKGRFTISRDNAKNTGYLEMNLLKPEDTAVYYCHADVLLGGLQGLIQRFWGQGTQVTVSS
notes: as for B1
**Q.** Which koff [5] does the source give for B14 here?
**A.** 0.000803 s⁻¹

**Q.** What about the kon [5] of the same molecule?
**A.** 2.33e+06 M⁻¹ s⁻¹

B15: anti-hTIGIT Nb 17018 (VHH)
VHH: QVQLQESGGGLVQAGGSLRLSCTASSIFSINAMGWYRQTPGKQRELVARITNGSSTNYADSVKGRFTISRDNAKNTVYLQMNSLKPEDTAVYYCHTDLLLEVGAMRYWGQGTQVTVSS
notes: as for B1
**Q.** What does the source list for B15?
**A.** koff [5]: 0.000496 s⁻¹; kon [5]: 1.06e+06 M⁻¹ s⁻¹

B16: anti-hTIGIT Nb 17037 (VHH)
VHH: QVQLQESGGGLVQAGGSLRLSCAASSTLSIDDMGWYRQAPEKHREFVATISRGGSTNYAASVKGRFTISRDNAKNTVFLQMNNLKSEDTAVYYCRATSTWRYYWAQGTQVTVSS
notes: as for B1
**Q.** With B16 as the molecule, how does the koff [5] read?
**A.** 0.00157 s⁻¹

**Q.** What about the kon [5] of the same molecule?
**A.** 1.36e+07 M⁻¹ s⁻¹

B17: single-chain variable fragment derived from the monoclonal antibody Vibostolimab (scFv, V domains shown)
VH: EVQLVQSGAEVKKPGSSVKVSCKASGYTFSSYVMHWVRQAPGQGLEWIGYIDPYNDGAKYAQKFQGRVTLTSDKSTSTAYMELSSLRSEDTAVYYCARGGPYGWYFDVWGQGTTVTVSS
VL: DIQMTQSPSSLSASVGDRVTITCRASEHIYSYLSWYQQKPGKVPKLLIYNAKTLAEGVPSRFSGSGSGTDFTLTISSLQPEDVATYYCQHHFGSPLTFGQGTRLEIK
notes: variable domain of the heavy chain (VH) of Vibostolimab (Merck); (G4S)3 linker; variable domain of the light chain (VL) of Vibostolimab (Merck); Cloned in pHen6; also called ScFv Vibo; Vibo scFv; source: E. coli WK6, periplasmic extract, purified (Ni-NTA, SEC), produced in the same way as the Nbs; not shown: His6, C-terminal, kept
**Q.** What does the source list for B17?
**A.** koff [5]: 0.000827 s⁻¹; kon [5]: 830000 M⁻¹ s⁻¹

B18: anti-mTIGIT Nb 16972 (VHH)
VHH: QVQLQESGGGLVQTGESLRLSCAASSVSSITGMDWYRQAPGKQREWVATITRNNIAMYGASVKGRFTVSRDNAKNTWYLQMNSLKPEDTAVYYCTYRGNWGQGTQVTVSS
notes: as for B1
**Q.** With B18 as the molecule, how does the koff [2] read?
**A.** 0.00113 s⁻¹

**Q.** And the kon [2]?
**A.** 7.46e+06 M⁻¹ s⁻¹

B19: anti-mTIGIT Nb 16988 (VHH)
VHH: QVQLQESGGGLVQAGGSLRLSCAASSVSSITGMDWYRQAPGKQREWVATITRNNIAMYGASVKGRFTVSRDDAKNTWYLQMNSLKPEDTAVYYCTYHGNWGQGTQVTVSS
notes: as for B1
**Q.** Which results are given for B19?
**A.** koff [2]: 0.000738 s⁻¹; kon [2]: 7.06e+06 M⁻¹ s⁻¹
